Assay results taken from patent EP4538286A1 (Adlai Nortye Biopharma Co., Ltd., dated 2025).
Changes are numbered by the printed parent chain. In names and notes the source's numbering stands. One block for each binder: values may come before it.

What was measured:
[1] = molecular target: T1, human CD28 protein (human, UniProt P10747 19-152); assay: ELISA, plate-coated human CD28; set-up: binding strength @ 100nM: reference not given here
T1 construct: bought protein coated on the ELISA plate; also called human CD28 antigen
T1 sequence (P10747 19-152 limits assumed): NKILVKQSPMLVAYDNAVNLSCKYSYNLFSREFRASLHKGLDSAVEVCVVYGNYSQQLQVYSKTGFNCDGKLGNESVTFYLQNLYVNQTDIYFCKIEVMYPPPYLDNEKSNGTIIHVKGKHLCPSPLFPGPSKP

[2] = molecular target: T2, human CTLA4 protein (human, UniProt P16410 37-162, limits assumed); assay: ELISA, plate-coated human CTLA4
T2 construct: bought protein coated on the ELISA plate; also called human CTLA4 antigen
T2 sequence (looked up): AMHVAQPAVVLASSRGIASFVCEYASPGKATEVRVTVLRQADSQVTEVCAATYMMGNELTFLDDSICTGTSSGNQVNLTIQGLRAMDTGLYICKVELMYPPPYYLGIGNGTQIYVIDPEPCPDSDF

[3] = molecular target: PD-L1 on TCR activator PD-L1-CHO cells (UniProt Q9NZQ7 19-290, limits assumed); assay: cell-based or functional assay
Chain of PD-L1 on TCR activator PD-L1-CHO cells (Q9NZQ7 19-290 limits assumed): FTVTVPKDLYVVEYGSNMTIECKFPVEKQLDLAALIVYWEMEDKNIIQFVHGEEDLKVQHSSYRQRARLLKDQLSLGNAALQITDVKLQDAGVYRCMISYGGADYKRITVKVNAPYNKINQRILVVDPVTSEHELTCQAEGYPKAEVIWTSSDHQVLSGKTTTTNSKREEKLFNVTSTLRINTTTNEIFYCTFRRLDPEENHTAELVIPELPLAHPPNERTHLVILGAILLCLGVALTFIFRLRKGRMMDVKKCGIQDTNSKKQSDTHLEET

binding result [1]: no binding
binding result [2]: no binding
EC50(nM), Jurkat-NFAT-Luc/CHO-PDL1 [3]: 1 nM
The highest induction relative to 10 nM sugemalimab [3]: 121%
B3: Abs-363 (other)
heavy: VIHVTKEVKEVATLSCGHNVSVEELAQTRIYWQKQKKMVLTMMSGDMNIWPEYKNRTIFDITNNLSIVILQLRPSDEGTYECVVLKYEKDAFKREHLAEVTLSVKADGGGGSGGGGSGGGGSGGGGSGEVQLLESGGGLVQPGGSLRLSCAASGFTFSSYAMSWVRQAPGKGLEWVSGISGSGGFTYYADSVKGRFTISRDNSKNTLYLQMNSLRAEDTAVYYCAKPPRGYNYGPFDYWGQGTLVTVSSASTKGPSVFPLAPCSRSTSESTAALGCLVKDYFPEPVTVSWNSGALTSGVHTFPAVLQSSGLYSLSSVVTVPSSSLGTKTYTCNVDHKPSNTKVDKRVESKYGPPCPPCPAPEFLGGPSVFLFPPKPKDTLMISRTPEVTCVVVDVSQEDPEVQFNWYVDGVEVHNAKTKPREEQFNSTYRVVSVLAVLHQDWLNGKEYKCKVSNKGLPSSIEKTISKAKGQPREPQVYTLPPSQEEMTKNQVSLTCLVKGFYPSDIAVAWESNGQPENNYKTTPPVLDSDGSFFLYSRLTVDKSRWQEGNVFSCSVMHEALHAHYTQKSLSLSLGK
light: SYVLTQPPSVSVAPGQTARITCGGNNIGSKSVHWYQQKPGQAPVLVVYDDSDRPSGIPERFSGSNSGNTATLTISRVEAGDEADYYCQVWDSSSDHVVFGGGTKLTVLGQPKAAPSVTLFPPSSEELQANKATLVCLISDFYPGAVTVAWKADSSPVKAGVETTTPSKQSNNKYAASSYLSLTPEQWKSHRSYSCQVTHEGSTVEKTVAPTECS
notes: CD80 IgV mutant fused to the N-terminus of the sugemalimab heavy chain; also called CD80 IgV mutant E35Q/A71Q-sugemalimab fusion

EC50 [1]: 27.7 nM
binding strength @ 100nM [1]: 700%
EC50 [2]: 26.5 nM
binding strength @ 20nM [2]: 640%
EC50(nM), Jurkat-NFAT-Luc/CHO-PDL1 [3]: 1.84 nM
The highest induction relative to 10 nM sugemalimab [3]: 113%
B8: Abs-367 (other)
heavy: B3 heavy with Q35T
light: B3 light
notes: the paragraph that names the antibody is followed; also called CD80 IgV mutant E35T/A71Q-sugemalimab fusion

binding result [1]: no binding
binding result [2]: no binding
EC50(nM), Jurkat-NFAT-Luc/CHO-PDL1 [3]: 1.1 nM
The highest induction relative to 10 nM sugemalimab [3]: 277%
B10: Abs-358 (other)
heavy: B3 heavy with Q35S, Q71N
light: B3 light
notes: CD80 IgV mutant fused to the N-terminus of the sugemalimab heavy chain; also called CD80 IgV mutant E35S/A71N-sugemalimab fusion

EC50 [1]: 27.9 nM
binding strength @ 100nM [1]: 857%
EC50 [2]: 24.7 nM
binding strength @ 20nM [2]: 400%
EC50(nM), Jurkat-NFAT-Luc/CHO-PDL1 [3]: 2.75 nM
The highest induction relative to 10 nM sugemalimab [3]: 129%
B11: Abs-365 (other)
heavy: B3 heavy with Q35T, Q71E
light: B3 light
notes: CD80 IgV mutant fused to the N-terminus of the sugemalimab heavy chain; also called CD80 IgV mutant E35T/A71E-sugemalimab fusion

EC50 [1]: 28.7 nM
binding strength @ 100nM [1]: 700%
binding result [2]: no binding
EC50(nM), Jurkat-NFAT-Luc/CHO-PDL1 [3]: 0.52 nM
The highest induction relative to 10 nM sugemalimab [3]: 138%
B12: Abs-368 (other)
heavy: B3 heavy with Q35T, Q71T
light: B3 light
notes: the paragraph that names the antibody is followed; also called CD80 IgV mutant E35T/A71T-sugemalimab fusion

EC50 [1]: 27.6 nM
binding strength @ 100nM [1]: 785%
EC50 [2]: 5.45 nM
binding strength @ 20nM [2]: 3130%
EC50(nM), Jurkat-NFAT-Luc/CHO-PDL1 [3]: 1.06 nM
The highest induction relative to 10 nM sugemalimab [3]: 150%
B13: Abs-364 (other)
heavy: B3 heavy with Q71T
light: B3 light
notes: CD80 IgV mutant fused to the N-terminus of the sugemalimab heavy chain; also called CD80 IgV mutant E35Q/A71T-sugemalimab fusion

binding result [1]: no binding
binding result [2]: no binding
EC50(nM), Jurkat-NFAT-Luc/CHO-PDL1 [3]: 1.13 nM
The highest induction relative to 10 nM sugemalimab [3]: 334%
B14: Abs-361 (other)
heavy: B3 heavy with Q71E
light: B3 light
notes: CD80 IgV mutant fused to the N-terminus of the sugemalimab heavy chain; also called CD80 IgV mutant E35Q/A71E-sugemalimab fusion

Further lines, the binder ahead of its results:

B1: Abs-354 (other)
heavy: B3 heavy with Q35N, Q71N
light: B3 light
notes: CD80 IgV mutant fused to the N-terminus of the sugemalimab heavy chain; also called CD80 IgV mutant E35N/A71N-sugemalimab fusion
EC50 [1]: 22.1 nM
binding strength @ 100nM [1]: 6300%
EC50 [2]: 0.124 nM
binding strength @ 20nM [2]: 3010%
EC50(nM), Jurkat-NFAT-Luc/CHO-PDL1 [3]: 0.25 nM
The highest induction relative to 10 nM sugemalimab [3]: 1610%

B2: Abs-357 (other)
heavy: B3 heavy with Q35S, Q71E
light: B3 light
notes: CD80 IgV mutant fused to the N-terminus of the sugemalimab heavy chain; also called CD80 IgV mutant E35S/A71E-sugemalimab fusion
EC50 [1]: 26 nM
binding strength @ 100nM [1]: 585%
EC50 [2]: 17.8 nM
binding strength @ 20nM [2]: 1830%
EC50(nM), Jurkat-NFAT-Luc/CHO-PDL1 [3]: 1 nM
The highest induction relative to 10 nM sugemalimab [3]: 238%

B4: Abs-359 (other)
heavy: B3 heavy with Q35S
light: B3 light
notes: CD80 IgV mutant fused to the N-terminus of the sugemalimab heavy chain; also called CD80 IgV mutant E35S/A71Q-sugemalimab fusion
EC50 [1]: 21.1 nM
binding strength @ 100nM [1]: 450%
EC50 [2]: 26.4 nM
binding strength @ 20nM [2]: 766%
EC50(nM), Jurkat-NFAT-Luc/CHO-PDL1 [3]: 0.88 nM
The highest induction relative to 10 nM sugemalimab [3]: 42%

B5: Abs-355 (other)
heavy: B3 heavy with Q35N
light: B3 light
notes: CD80 IgV mutant fused to the N-terminus of the sugemalimab heavy chain; also called CD80 IgV mutant E35N/A71Q-sugemalimab fusion
EC50 [1]: 26.8 nM
binding strength @ 100nM [1]: 530%
EC50 [2]: 0.236 nM
binding strength @ 20nM [2]: 3420%
EC50(nM), Jurkat-NFAT-Luc/CHO-PDL1 [3]: 0.56 nM
The highest induction relative to 10 nM sugemalimab [3]: 1110%

B6: Abs-360 (other)
heavy: B3 heavy with Q35S, Q71T
light: B3 light
notes: CD80 IgV mutant fused to the N-terminus of the sugemalimab heavy chain; also called CD80 IgV mutant E35S/A71T-sugemalimab fusion
EC50 [1]: 25.9 nM
binding strength @ 100nM [1]: 933%
EC50 [2]: 26.7 nM
binding strength @ 20nM [2]: 316%
EC50(nM), Jurkat-NFAT-Luc/CHO-PDL1 [3]: 0.82 nM
The highest induction relative to 10 nM sugemalimab [3]: 64%

B7: Abs-356 (other)
heavy: B3 heavy with Q35N, Q71T
light: B3 light
notes: CD80 IgV mutant fused to the N-terminus of the sugemalimab heavy chain; also called CD80 IgV mutant E35N/A71T-sugemalimab fusion
EC50 [1]: 27.8 nM
binding strength @ 100nM [1]: 733%
EC50 [2]: 18.5 nM
binding strength @ 20nM [2]: 1670%
EC50(nM), Jurkat-NFAT-Luc/CHO-PDL1 [3]: 0.9 nM
The highest induction relative to 10 nM sugemalimab [3]: 441%

B9: Abs-362 (other)
heavy: B3 heavy with Q71N
light: B3 light
notes: CD80 IgV mutant fused to the N-terminus of the sugemalimab heavy chain; also called CD80 IgV mutant E35Q/A71N-sugemalimab fusion
EC50 [1]: 26.1 nM
binding strength @ 100nM [1]: 1100%
EC50 [2]: 8.39 nM
binding strength @ 20nM [2]: 3180%
EC50(nM), Jurkat-NFAT-Luc/CHO-PDL1 [3]: 0.58 nM
The highest induction relative to 10 nM sugemalimab [3]: 337%
